Data from patent US20260250420A1 (SICHUAN KELUN BIOTECH BIOPHARMACEUTICAL, published 2026).
Each block holds one binder with its values, some of them ahead of it.

Legend:
[1] = biological target: T1, human PTK7 on cells (tumor cells endogenously expressing PTK7); CHO-hPTK7, CHO-S-hPTK7 and 293T-hPTK7 … (human, UniProt Q13308 31-1070); assay: flow cytometry on T47D cells
T1 construct: whole, on cells; The cell line of each value is named under assay; also called H1299; H358
T1 sequence (looked up): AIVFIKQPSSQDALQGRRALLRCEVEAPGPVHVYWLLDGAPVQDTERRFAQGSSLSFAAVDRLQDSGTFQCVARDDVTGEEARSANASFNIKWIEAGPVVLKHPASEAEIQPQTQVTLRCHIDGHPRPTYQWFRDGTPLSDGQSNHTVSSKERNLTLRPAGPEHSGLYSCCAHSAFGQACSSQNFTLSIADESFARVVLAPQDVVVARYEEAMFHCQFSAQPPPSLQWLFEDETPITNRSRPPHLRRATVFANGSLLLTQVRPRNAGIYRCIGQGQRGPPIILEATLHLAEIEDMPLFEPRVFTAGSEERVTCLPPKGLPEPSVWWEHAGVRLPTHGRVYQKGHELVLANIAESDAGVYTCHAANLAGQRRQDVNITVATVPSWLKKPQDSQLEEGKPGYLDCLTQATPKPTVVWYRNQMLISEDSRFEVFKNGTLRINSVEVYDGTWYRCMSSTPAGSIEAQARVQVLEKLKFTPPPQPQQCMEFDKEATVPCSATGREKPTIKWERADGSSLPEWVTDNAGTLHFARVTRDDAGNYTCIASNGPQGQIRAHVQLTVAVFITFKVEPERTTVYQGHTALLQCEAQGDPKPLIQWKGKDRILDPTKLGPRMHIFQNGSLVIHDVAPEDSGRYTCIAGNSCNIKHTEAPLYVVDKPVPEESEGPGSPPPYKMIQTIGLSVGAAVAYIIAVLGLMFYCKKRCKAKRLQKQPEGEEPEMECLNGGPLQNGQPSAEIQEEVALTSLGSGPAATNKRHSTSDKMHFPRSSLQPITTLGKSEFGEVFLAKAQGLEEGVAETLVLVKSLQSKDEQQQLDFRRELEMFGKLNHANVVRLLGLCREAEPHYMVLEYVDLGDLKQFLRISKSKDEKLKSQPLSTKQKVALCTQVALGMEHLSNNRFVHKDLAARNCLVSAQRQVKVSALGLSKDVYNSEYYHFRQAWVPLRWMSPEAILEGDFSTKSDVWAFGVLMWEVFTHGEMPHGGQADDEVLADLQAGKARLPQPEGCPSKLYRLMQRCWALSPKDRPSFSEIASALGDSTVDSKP
Description: (§1) A flow cytometer (Beckman, Cytoflex) was used for detecting the affinity of the anti-human PTK7 chimeric and humanized antibodies with human non-small cell lung cancer cells H1299, human lung adenocarcinoma cells H1975, human breast cancer cells T47D, human ovarian cancer cells OVCAR-3 (all purchased from NANJING COBIOER BIOSCIENCES CO., LTD) and CHO-hPTK7 overexpression cells.
(§2) The adherent cells were digested by using a pancreatin (Gibco) solution; a proper amount of cells were counted and taken, washed twice by using 1×PBS, and re-suspended in a 1% BSA solution; and then the cells were transferred into a 96-well deep plate at a density of 50 μl/well; a candidate antibody was diluted by using 1% BSA, then 50 μl of diluted antibody was added into the deep plate containing the cells, and incubated for 40 min at 4° C.; the cells were washed twice by using PBS, then 50 μl of diluted secondary antibody was added into each well, uniformly mixed, and incubated for 30 min at 4° C.; and the cells were washed twice by using PBS, then re-suspended in 400 μl of PBS, and subjected to examination by flow cytometer.

[2] = biological target: T2, human PTK7 protein (extracellular sequence of human PTK7 with C-terminal 6×His tag) (human, UniProt Q13308 31-704); assay: ELISA, coated human PTK7-His protein 1 µg/ml
T2 construct: extracellular domain; Expressed transiently in HEK293 cells; also called human PTK7-His; human PTK7-His protein
T2 sequence: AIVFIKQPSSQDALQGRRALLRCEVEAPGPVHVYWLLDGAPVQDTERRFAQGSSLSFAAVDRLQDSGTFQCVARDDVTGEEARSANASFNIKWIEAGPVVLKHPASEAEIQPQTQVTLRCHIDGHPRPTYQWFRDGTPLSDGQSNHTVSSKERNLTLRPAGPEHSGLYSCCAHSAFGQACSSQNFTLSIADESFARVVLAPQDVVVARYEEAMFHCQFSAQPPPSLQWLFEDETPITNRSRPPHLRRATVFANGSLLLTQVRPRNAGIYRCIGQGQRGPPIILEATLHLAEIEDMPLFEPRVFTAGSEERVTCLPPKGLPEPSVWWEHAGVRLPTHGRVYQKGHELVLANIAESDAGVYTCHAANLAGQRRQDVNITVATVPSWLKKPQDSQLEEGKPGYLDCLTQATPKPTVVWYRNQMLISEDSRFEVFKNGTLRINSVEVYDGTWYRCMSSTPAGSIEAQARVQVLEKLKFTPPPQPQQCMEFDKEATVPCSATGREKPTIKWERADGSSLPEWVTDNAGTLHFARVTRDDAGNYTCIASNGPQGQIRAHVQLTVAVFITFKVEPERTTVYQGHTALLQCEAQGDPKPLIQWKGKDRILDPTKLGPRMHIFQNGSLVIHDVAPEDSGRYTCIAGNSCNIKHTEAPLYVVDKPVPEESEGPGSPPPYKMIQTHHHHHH
Experimental: The original data was imported into software for nonlinear curve fitting, and the EC₅₀ of binding of each antibody to the human PTK7 was calculated, respectively.

[3] = biological target: T2, human PTK7 protein (extracellular …); assay: BLI (ForteBio), antibody on Protein A sensor, human PTK7-His 200-3.125 nM, 1:1 global fit
Description: The dynamic affinity of the control Hu24 and candidate antibodies 64A10HZ, 101A6HZ, 4E12HZ and 19C2HZ with human PTK7-His was detected by using ForteBio (Pall life sciences).

[4] = biological target: T1, human PTK7 on cells (tumor cells …); assay: flow cytometry on H1975 cells
Description: as §1, §2

[5] = biological target: T1, human PTK7 on cells (tumor cells …); assay: flow cytometry on H1299 cells
Description: as §1, §2

- EC50 [1]: 0.0861 µg/mL
- EC50 [2]: 0.0466 µg/mL
- Kd [3]: 4.96 nM
- koff [3]: 0.00105 s⁻¹
- kon [3]: 211000 M⁻¹ s⁻¹
- EC50 [4]: 0.134 µg/mL
- EC50 [5]: 0.0649 µg/mL
B1: Hu24 (PTK7 control antibody, taken from Hu24 in the Patent CN201580030255) (antibody)
chain 1: QVQLVQSGPEVKKPGASVKVSCKASGYTFTDYAVHWVRQAPGKRLEWIGVISTYNDYTYNNQDFKGRVTMTRDTSASTAYMELSRLRSEDTAVYYCARGNSYFYALDYWGQGTSVTVSS
chain 2: EIVLTQSPATLSLSPGERATLSCRASESVDSYGKSFMHWYQQKPGQAPRLLIYRASNLESGIPARFSGSGSGTDFTLTISSLEPEDFAVYYCQQSNEDPWTFGGGTKLEIK

- EC50 [1]: 0.217 µg/mL
- EC50 [2]: 0.0155 µg/mL
- Kd [3]: 10.9 nM
- koff [3]: 0.00278 s⁻¹
- kon [3]: 255000 M⁻¹ s⁻¹
- EC50 [4]: 0.0767 µg/mL
- EC50 [5]: 0.0475 µg/mL
B2: 64A10HZ (anti-human PTK7 humanized antibody) (antibody, human IgG1, kappa, V domains shown)
VH: QVQLQESGPGLVKPSETLSLTCTVSGFSLTSYGVYWVRQPPGKGPEWLGVIWTSGNTNYNPSLKSRLTISKDNSKNQVSLKLSSVTAADTAVYYCVKHDGGNYVGVMNYWGQGTLVTVSS
VL: EIVMTQSPDFQSVTPKEKVTITCRASQSISDYLHWYQQKPDQSPKLLIKYASQSISGVPSRFSGSGSGSDFTLTINSLEAEDAATYYCQNGHSFPPTFGQGTKLEIKR
notes: Human IgG1 heavy chain constant region and human Kappa light chain constant region; expressed in CHO-S cells

- EC50 [1]: 0.0968 µg/mL
- EC50 [2]: 0.0266 µg/mL
- Kd [3]: 42.4 nM
- koff [3]: 0.00566 s⁻¹
- kon [3]: 134000 M⁻¹ s⁻¹
- EC50 [4]: 0.178 µg/mL
- EC50 [5]: 0.0843 µg/mL
B3: 101A6HZ (anti-human PTK7 humanized antibody) (antibody, human IgG1, kappa)
heavy: not shown
light: DIVMTQSPDSLAVSLGERATINCKASQDVGSAVIWYQQKPGQSPKLLIYWASTRHTGVPDRFSGSGSGTDFTLTISSLQAEDVAVYYCQQYSSYPLTFGQGTKLEIKRTVAAPSVFIFPPSDEQLKSGTASVVCLLNNFYPREAKVQWKVDNALQSGNSQESVTEQDSKDSTYSLSSTLTLSKADYEKHKVYACEVTHQGLSSPVTKSFNRGEC
